The results in this text go back to the RNAGym collection of RNA variant scans (doi:10.7554/elife.80360).

Sequences and labels used below:
B1: Hammerhead Ribozyme (parent)
chain: ACCGGAUGUGCUUUCCGGUCUGAUGAGUCCGUGAGGACGAAACAG

Variants of B1 are the subject of the data set. In words: self-cleavage, relative activity (ratio to wild type); higher = more cleavage; co-transcriptional.
With ACCGGAUGUCCUUUCCGGUCGGAUGAGUCCGUGAGGACGAAACAG [G10C U21G], the self-cleavage is 0.414. The figure for ACCGGAUGUCCUUUCCGGUCAGAUGAGUCCGUGAGGACGAAACAG [G10C U21A] is 0.533; for ACCGGAUGUCCUUUCCGGUCUGAUGAGUCCGCGAGGACGAAACAG [G10C U32C] it is 1.3; for ACCGGAUGUCCUUUCCGGUCUGAUGAGUCCGAGAGGACGAAACAG [G10C U32A] it is 1.09. Turning to ACCGGAUGUCCUUUCCGGUCUGAUGAGUCCGGGAGGACGAAACAG [G10C U32G], the self-cleavage stood at 0.638. In the case of ACCGGAUGUCCUUUCCUGUCUGAUGAGUCCGUGAGGACGAAACAG [G10C G17U], the self-cleavage was determined as 0.932. In the case of ACCGGAUGUCCUUUCCAGUCUGAUGAGUCCGUGAGGACGAAACAG [G10C G17A], the self-cleavage is 0.926. For the variant ACCGGAUGUCCUUUCCCGUCUGAUGAGUCCGUGAGGACGAAACAG [G10C G17C], the self-cleavage is 0.614. The figure for ACCGGAUGUCCGUUCCGGUCUGAUGAGUCCGUGAGGACGAAACAG [G10C U12G] is 1.09; for ACCGGAUGUCCCUUCCGGUCUGAUGAGUCCGUGAGGACGAAACAG [G10C U12C] it is 1.26; for ACCGGAUGUCCAUUCCGGUCUGAUGAGUCCGUGAGGACGAAACAG [G10C U12A] it is 0.954.

Turning to ACCGGAUGUCCUUUCCGGUCUUAUGAGUCCGUGAGGACGAAACAG [G10C G22U], the self-cleavage was determined as 0.335. The figure for ACCGGAUGUCCUUUCCGGUCUCAUGAGUCCGUGAGGACGAAACAG [G10C G22C] is 0.28. The figure for ACCGGAUGUCCUUUCCGGUCUAAUGAGUCCGUGAGGACGAAACAG [G10C G22A] is 0.338. The figure for ACCGGAUGUCCUUCCCGGUCUGAUGAGUCCGUGAGGACGAAACAG [G10C U14C] is 1.28; for ACCGGAUGUCCUUACCGGUCUGAUGAGUCCGUGAGGACGAAACAG [G10C U14A] it is 0.796; for ACCGGAUGUCCUUGCCGGUCUGAUGAGUCCGUGAGGACGAAACAG [G10C U14G] it is 0.606. As to ACCGGAUGUACUUUCCGGUCUGAUGAGACCGUGAGGACGAAACAG [G10A U28A], the self-cleavage was 1.12.

Regarding ACCGGAUGUACUUUCCGGUCUGAUGAGCCCGUGAGGACGAAACAG [G10A U28C], the self-cleavage was determined as 1.37. The figure for ACCGGAUGUACUUUCCGGUCUGAUGAGGCCGUGAGGACGAAACAG [G10A U28G] is 1.15; for ACCGGAUGUCCUUUCCGGUCUGAUGAGUCCGUGAGGACGAAAGAG [G10C C43G] it is 0.381. Regarding ACCGGAUGUCCUUUCCGGUCUGAUGAGUCCGUGAGGACGAAAAAG [G10C C43A], the self-cleavage amounted to 0.354. The figure for ACCGGAUGUCCUUUCCGGUCUGAUGAGUCCGUGAGGACGAAAUAG [G10C C43U] is 0.524; for ACCGGAUGUCCUUUCCGGUCUGAUGAGUCCGUGAGGACCAAACAG [G10C G39C] it is 0.324. On to ACCGGAUGUCCUUUCCGGUCUGAUGAGUCCGUGAGGACUAAACAG [G10C G39U], for which the self-cleavage was found to be 0.307.

Turning to ACCGGAUGUCCUUUCCGGUCUGAUGAGUCCGUGAGGACAAAACAG [G10C G39A], the self-cleavage worked out at 0.368. Take ACCGGAUGUCCUUUCCGGUCUGAUGAGUCCGUGAGAACGAAACAG [G10C G36A]: the self-cleavage amounted to 0.586. The figure for ACCGGAUGUCCUUUCCGGUCUGAUGAGUCCGUGAGCACGAAACAG [G10C G36C] is 0.84. The figure for ACCGGAUGUCCUUUCCGGUCUGAUGAGUCCGUGAGUACGAAACAG [G10C G36U] is 0.56; for ACCGGAUGUCGUUUCCGGUCUGAUGAGUCCGUGAGGACGAAACAG [G10C C11G] it is 1.17; for ACCGGAUGUCAUUUCCGGUCUGAUGAGUCCGUGAGGACGAAACAG [G10C C11A] it is 1.11. The figure for ACCGGAUGUCUUUUCCGGUCUGAUGAGUCCGUGAGGACGAAACAG [G10C C11U] is 1.18; for ACCGGAUGUCCUUUCCGGUCUGAUGAGUCCGUGACGACGAAACAG [G10C G35C] it is 0.497; for ACCGGAUGUCCUUUCCGGUCUGAUGAGUCCGUGAUGACGAAACAG [G10C G35U] it is 0.818. As to ACCGGAUGUCCUUUCCGGUCUGAUGAGUCCGUGAAGACGAAACAG [G10C G35A], the self-cleavage stood at 0.848. With ACCGGAUGUCCUUUCCGGUCUGAUGAGUCCGUGCGGACGAAACAG [G10C A34C], the self-cleavage was found to be 0.424.

Take ACCGGAUGUCCUUUCCGGUCUGAUGAGUCCGUGUGGACGAAACAG [G10C A34U]: the self-cleavage came to 0.934. The figure for ACCGGAUGUCCUUUCCGGUCUGAUGAGUCCGUGGGGACGAAACAG [G10C A34G] is 0.841; for ACCGGAUGUCCUUUCCGGUCUGAUGAGUCCGUGAGGACGAACCAG [G10C A42C] it is 0.34; for ACCGGAUGUCCUUUCCGGUCUGAUGAGUCCGUGAGGACGAAGCAG [G10C A42G] it is 0.278.

ACCGGAUGUCCUUUCCGGUCUGAUGAGUCCGUGAGGACGAAUCAG [G10C A42U]: the self-cleavage worked out at 0.277. The figure for ACCGGAUGUCCUUUCCGGUCUGACGAGUCCGUGAGGACGAAACAG [G10C U24C] is 0.853; for ACCGGAUGUCCUUUCCGGUCUGAGGAGUCCGUGAGGACGAAACAG [G10C U24G] it is 1.06; for ACCGGAUGUCCUUUCCGGUCUGAAGAGUCCGUGAGGACGAAACAG [G10C U24A] it is 0.811.

Take ACCGGAUGUCCUUUCGGGUCUGAUGAGUCCGUGAGGACGAAACAG [G10C C16G]: the self-cleavage worked out at 0.522.

Consider ACCGGAUGUCCUUUCAGGUCUGAUGAGUCCGUGAGGACGAAACAG [G10C C16A], for which the self-cleavage came out at 0.995. The figure for ACCGGAUGUCCUUUCUGGUCUGAUGAGUCCGUGAGGACGAAACAG [G10C C16U] is 0.964; for ACCGGAUGUCCUUUCCGGUCUGAUGAGUCCGUGAGGACGAAACCG [G10C A44C] it is 0.61; for ACCGGAUGUCCUUUCCGGUCUGAUGAGUCCGUGAGGACGAAACGG [G10C A44G] it is 1.44. Take ACCGGAUGUCCUUUCCGGUCUGAUGAGUCCGUGAGGACGAAACUG [G10C A44U]: the self-cleavage was 0.57. The figure for ACCGGAUGUCCUUUCCGGUCUGAUGAGGCCGUGAGGACGAAACAG [G10C U28G] is 0.38; for ACCGGAUGUCCUUUCCGGUCUGAUGAGCCCGUGAGGACGAAACAG [G10C U28C] it is 1.01. Turning to ACCGGAUGUCCUUUCCGGUCUGAUGAGACCGUGAGGACGAAACAG [G10C U28A], the self-cleavage stood at 0.381. Consider ACCGGAUGUACUUUCCGGUCUGAGGAGUCCGUGAGGACGAAACAG [G10A U24G], for which the self-cleavage turned out to be 0.875. With ACCGGAUGUCCUUUCCGGUCUGAUGAGUCCGUGAGGAAGAAACAG [G10C C38A], the self-cleavage was determined as 0.79. Consider ACCGGAUGUCCUUUCCGGUCUGAUGAGUCCGUGAGGAGGAAACAG [G10C C38G], for which the self-cleavage came out at 0.582.

For ACCGGAUGUCCUUUCCGGUCUGAUGAGUCCGUGAGGAUGAAACAG [G10C C38U], the self-cleavage stood at 1.16.
